Like-named read-outs stand apart in the source and are kept apart here. Starred links: 1 amine or outer side, 2 acyl side, 3 side chain; linkers in the order of their positions; H or OH if unused. Positions of bridges follow the written chain, without caps; N, C: chain ends. Non-standard residues stand in square brackets, D forms with d. Residues, ends and D or L forms follow the SMILES beside them. Chains are numbered I, II in the order given. *: point of attachment. X1 = O=C(CCP(=O)(O)CN1CCN(CP(=O)(O)CCC(=O)NCCCn2cc(CCC(=O)[*:2])nn2)CCN(CP(=O)(O)CCC(=O)NCCCn2cc(CCC(=O)[*:3])nn2)CC1)NCCCn1cc(CCC(=O)[*:1])nn1; X2 = O=C(O)CCP(=O)(O)CN1CCN(CP(=O)(O)CCC(=O)O)CCN(CP(=O)(O)CCC(=O)NCCCn2cc(CCC(=O)*)nn2)CC1; NMeK = CN[C@@H](CCCCN)C(=O)O; Pent4ynoyl = C#CCCC(=O)*
Columns and labels:
[1] = test system: MeWo (human melanoma) xenografted SCID mice; set-up: method as in PMID 23283986; details: cited from earlier work
αvβ8-integrin = αvβ8-integrin (Homo sapiens, UniProt P06756+P26012); test: solid-phase binding assay, αvβ8-integrin affinity
αvβ8-integrin, sequence (P06756 31-992 limits assumed): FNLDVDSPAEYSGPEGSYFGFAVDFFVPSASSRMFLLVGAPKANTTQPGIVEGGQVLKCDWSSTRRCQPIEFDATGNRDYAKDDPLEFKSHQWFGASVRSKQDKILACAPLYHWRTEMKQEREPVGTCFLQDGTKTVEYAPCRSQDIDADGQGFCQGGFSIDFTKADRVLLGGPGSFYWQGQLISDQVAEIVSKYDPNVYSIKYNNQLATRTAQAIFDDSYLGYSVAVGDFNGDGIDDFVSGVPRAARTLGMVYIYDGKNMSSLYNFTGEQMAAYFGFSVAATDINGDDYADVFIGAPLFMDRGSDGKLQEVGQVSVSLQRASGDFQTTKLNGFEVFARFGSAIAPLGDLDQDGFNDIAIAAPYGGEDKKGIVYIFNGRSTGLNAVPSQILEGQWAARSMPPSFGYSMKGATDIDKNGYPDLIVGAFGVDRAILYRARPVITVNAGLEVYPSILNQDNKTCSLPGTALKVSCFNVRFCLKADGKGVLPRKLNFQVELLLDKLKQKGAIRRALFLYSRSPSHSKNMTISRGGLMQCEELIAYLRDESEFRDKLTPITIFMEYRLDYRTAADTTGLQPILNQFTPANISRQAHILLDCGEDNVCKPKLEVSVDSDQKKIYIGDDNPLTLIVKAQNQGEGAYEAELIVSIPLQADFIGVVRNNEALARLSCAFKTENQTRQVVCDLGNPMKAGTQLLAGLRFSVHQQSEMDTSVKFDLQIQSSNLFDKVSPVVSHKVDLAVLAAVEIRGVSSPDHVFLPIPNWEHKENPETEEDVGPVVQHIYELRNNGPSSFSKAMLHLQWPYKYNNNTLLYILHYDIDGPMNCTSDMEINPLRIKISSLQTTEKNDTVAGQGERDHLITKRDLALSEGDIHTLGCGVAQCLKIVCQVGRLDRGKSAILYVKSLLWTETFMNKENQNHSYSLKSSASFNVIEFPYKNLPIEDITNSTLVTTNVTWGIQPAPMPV
αvβ8-integrin, sequence (P26012 43-684 limits assumed): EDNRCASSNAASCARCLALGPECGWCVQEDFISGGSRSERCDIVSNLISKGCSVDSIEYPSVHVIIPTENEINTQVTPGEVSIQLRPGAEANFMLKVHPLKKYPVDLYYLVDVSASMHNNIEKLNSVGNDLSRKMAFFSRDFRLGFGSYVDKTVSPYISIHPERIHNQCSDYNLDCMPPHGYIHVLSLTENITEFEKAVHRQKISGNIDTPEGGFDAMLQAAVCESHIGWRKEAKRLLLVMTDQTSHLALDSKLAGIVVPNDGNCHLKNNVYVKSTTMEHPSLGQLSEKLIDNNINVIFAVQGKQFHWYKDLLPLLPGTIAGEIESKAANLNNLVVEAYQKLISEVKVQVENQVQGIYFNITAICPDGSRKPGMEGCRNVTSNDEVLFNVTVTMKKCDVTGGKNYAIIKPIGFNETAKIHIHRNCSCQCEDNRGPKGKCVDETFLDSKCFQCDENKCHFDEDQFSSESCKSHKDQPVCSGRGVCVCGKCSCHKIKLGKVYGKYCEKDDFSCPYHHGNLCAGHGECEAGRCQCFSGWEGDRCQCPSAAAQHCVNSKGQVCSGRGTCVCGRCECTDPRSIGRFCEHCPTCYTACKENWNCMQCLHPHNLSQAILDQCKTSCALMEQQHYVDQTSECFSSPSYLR
Protocol: (§1) Synthesis and characterization of Triveoctin is described in the Additional file 1. The integrin affinities were determined by a solid-phase binding assay, applying a previously described protocol. β8 immunohistochemistry stainings were done as described. All animal studies have been performed in accordance with general animal welfare regulations in Germany and the institutional guidelines for the care and use of animals. ^68Ga radiolabeling, cultivation of MeWo cells and generation of respective subcutaneous xenografts, determination of n-octanol/phosphate-buffered saline (PBS) distribution coefficients (log D) and ex-vivo biodistribution studies, and µPET imaging were done as described previously in detail (a brief summary is provided in the following).

[2] = test system: MeWo (human melanoma) xenografted SCID mice; test: in vivo; details: mouse
Protocol: as §1
(§2) MeWo cells (ATCC®, HTB-65™) were grown at 37 °C under 5% CO2 atmosphere in DMEM/HAM (Biochrom, Berlin, Germany) with 10% fetal calf serum (Thermo Fisher). Approx. 10^7 cells were subcutaneously injected with Matrigel® (Corning, #354262) into the right shoulder of 6–8-week-old female CB17 severe combined immunodeficiency (SCID) mice, which were used about 2–3 weeks later for PET and biodistribution.
(§3) Fig. 3 Biodistribution of ^68Ga-Triveoctin, 60 min p.i. (43 ± 13 pmol, n = 6; blockade with 60 nmol Triveoctin injected 5 min prior to the radiopharmaceutical, n = 4) in MeWo-xenografted SCID mice, uptakes expressed as % injected dose per gram tissue; mean ± SD. Data for ^68Ga-TRAP-AvB8 (control: 77 ± 24 pmol, n = 11; blockade: n = 3) were taken from the literature and are shown for comparison. Data in numerical form are given in the Additional file 1: Table S1

in vivo = test: in vivo; set-up: species or system mice; details: female, CB17 SCID, mouse; for tissue uptake at 1 h: 43 pmol
Protocol: as §1, §2, §3

[3] = set-up: species or system human; details: in vivo
Protocol: (§4) Application of ^68Ga-Triveoctin was done according to §13/2b of the German Drug Act (Arzneimittelgesetz). A human subject received a single intravenous injection of ^68Ga-Triveoctin (173 MBq, approx. 25 µg; for radiolabeling and QC, see Additional file 1). […] 25 min p.i., the patient underwent a list-mode PET/CT imaging protocol on a Biograph Vision 600 (Siemens Healthineers, Knoxville, USA). A standard low-dose CT was acquired from the whole body (X-ray tube current 10 mA, tube voltage 100 kV, spiral pitch factor 1.5, 3.0 mm slice thickness) and used for absolute scatter correction of the subsequent PET scan. The emission PET scan was acquired over 19 min using continuous bed motion with a speed of 2.2 mm s^–1 for the legs and 1.4 mm s^–1 for the remaining body. The PET scan was repeated 45 min p.i. without another CT scan. Another PET/CT imaging sequence was acquired 90 min p.i. as the subject had to leave the scanner for voiding. All scans were obtained during normal breathing. PET images were reconstructed using the TRueX algorithm with 4 iterations, 5 subsets, time-of-flight (TOF) application and without filtering. […] The dosimetry values were calculated using OLINDA V1.1 [24] on the basis of the human PET data.
Assuming that an activity of 100 MBq ^68Ga-Triveoctin is sufficient for a PET scan at 30–60 min p.i., up to 6 investigations could be performed without exceeding the 20 mSv limit.

clinical = details: human, in vivo
Protocol: Using a fully automated synthesis module, the eluate of a ^68Ge/^68Ga generator (by Eckert & Ziegler, Berlin, Germany; 0.1 M HCl, approx. 500 MBq ^68Ga) was directly eluted into the reaction vial containing Triveoctin (35 µg) and adjusted to pH 4.5 with sodium acetate. After heating for 4 min at 95 °C, the mixture was passed over a solid-phase extraction cartridge (Waters Sep-Pak®light tC-18), which was purged with water (10 mL). Thereafter, ^68Ga-Triveoctin was eluted with ethanol/water mixture (1:1 by volume, 1 mL), followed by isotonic saline (9 mL). The formulation containing approx. 5% ethanol was passed through a 0.22-µm filter into a sterile injection vial and dispensed for injection. Quality control was done by radio-HPLC using a Shimadzu system equipped with a column Chromolith® Performance RP18e (Phenomenex, Aschaffenburg, Germany), gradient 0–100% acetonitrile in water within 15 min, flow rate 1.4 mL/min, tR = 8.53 min, and met the in-house specifications for ^68Ga-labeled compounds (> 95%).
as §4

[4] = non-radioactive 69/71Ga(III) complexes where applicable, read-out: αvβ8-Integrin affinity IC50 (95% confidence interval)
[5] = female, CB17 SCID, 43 pmol, 1 h

In the case of CC(C)C[C@@H]1NC(=O)CNC(=O)[C@H](CCCCNC(=O)CCc2cn(CCCNC(=O)CCP(=O)(O)CN3CCN(CP(=O)(O)CCC(=O)O)CCN(CP(=O)(O)CCC(=O)O)CC3)nn2)N(C)C(=O)[C@H]2CCCN2C(=O)[C@H](CC(C)C)NC(=O)[C@H](CC(=O)O)NC(=O)CNC(=O)[C@H](CCCNC(=N)N)NC1=O [^68Ga-TRAP-AvB8, metal not drawn] (cyclo(GLRGDL[dP][NMeK](X2))), the kidney uptake ([1]; 60 min p.i., average) is listed as 3.6 %IA/g, the “tumor uptake upon blockade” value ([1]; blockade n = 3) is listed as 0.25 %IA/g and the tumor uptake ([1]; control n = 11) is listed as 1.0 %IA/g. For the same compound, the IC50 (αvβ8-integrin) was 38 nM.
Work on C#CCCC(=O)NCCCC[C@H]1C(=O)NCC(=O)N[C@@H](CC(C)C)C(=O)N[C@@H](CCCNC(=N)N)C(=O)NCC(=O)N[C@@H](CC(=O)O)C(=O)N[C@@H](CC(C)C)C(=O)N2CCC[C@@H]2C(=O)N1C [AvB8-pentynoic amide, cyclo(GLRGDLp(NMe)K(pent-4-ynoic amide))] (cyclo(GLRGDL[dP][NMeK](Pent4ynoyl))) yielded an IC50 (αvβ8-integrin; [4]) of 17 nM.
In the case of CC(C)C[C@@H]1NC(=O)CNC(=O)[C@H](CCCCNC(=O)CCc2cn(CCCNC(=O)CCP(=O)(O)CN3CCN(CP(=O)(O)CCC(=O)NCCCn4cc(CCC(=O)NCCCC[C@H]5C(=O)NCC(=O)N[C@@H](CC(C)C)C(=O)N[C@@H](CCCNC(=N)N)C(=O)NCC(=O)N[C@@H](CC(=O)O)C(=O)N[C@@H](CC(C)C)C(=O)N6CCC[C@@H]6C(=O)N5C)nn4)CCN(CP(=O)(O)CCC(=O)NCCCn4cc(CCC(=O)NCCCC[C@H]5C(=O)NCC(=O)N[C@@H](CC(C)C)C(=O)N[C@@H](CCCNC(=N)N)C(=O)NCC(=O)N[C@@H](CC(=O)O)C(=O)N[C@@H](CC(C)C)C(=O)N6CCC[C@@H]6C(=O)N5C)nn4)CC3)nn2)N(C)C(=O)[C@H]2CCCN2C(=O)[C@H](CC(C)C)NC(=O)[C@H](CC(=O)O)NC(=O)CNC(=O)[C@H](CCCNC(=N)N)NC1=O [^68Ga-Triveoctin, metal not drawn] (I: cyclo(RGDL[dP][NMeK]GL) / II: cyclo(RGDL[dP][NMeK]GL) / III: cyclo(RGDL[dP][NMeK]GL); linker I:6-II:6-III:6 via X1), the Kidneys uptake [2, 5] is reported as 35 %IA/g, the “Tumor MeWo uptake” value [2, 5] is reported as 1.9 %IA/g and the tumor/adrenals ratio [2] is reported as 5.7 ± 2.3. For the same compound, the tumor/blood ratio [2] was 6.7, the tumor/eye ratio [2] was 1.0 ± 0.2 and the “tumor/large intestine (empty) ratio” value [2] was 11.0 ± 1.6. For the same compound, the tumor/liver ratio [2] was 6.8, the tumor/muscle ratio [2] was 29 and the “tumor/small intestine (empty) ratio” value [2] was 11.6 ± 3.9. The tissue uptake at 1 h (in vivo; Adrenals uptake) was 0.39 ± 0.23 %ID/g, the tissue uptake at 1 h (in vivo; Blood uptake) was 0.28 ± 0.06 %ID/g and the tissue uptake at 1 h (in vivo; Eye uptake) was 1.95 ± 0.44 %ID/g. It also gave a tissue uptake at 1 h (in vivo; Heart (myocard) uptake) of 0.16 ± 0.04 %ID/g, a tissue uptake at 1 h (in vivo; Kidneys uptake) of 35.3 ± 6.3 %ID/g and a tissue uptake at 1 h (in vivo; Large intestine (empty) uptake) of 0.17 ± 0.03 %ID/g. For the same compound, the tissue uptake at 1 h (in vivo; Liver uptake) was 0.28 ± 0.06 %ID/g, the tissue uptake at 1 h (in vivo; Lung uptake) was 0.68 ± 0.19 %ID/g and the tissue uptake at 1 h (in vivo; Muscle uptake) was 0.07 ± 0.01 %ID/g. It also gave a tissue uptake at 1 h (in vivo; Pancreas uptake) of 0.12 ± 0.02 %ID/g, a tissue uptake at 1 h (in vivo; Small intestine (empty) uptake) of 0.18 ± 0.09 %ID/g and a tissue uptake at 1 h (in vivo; Spleen uptake) of 0.23 ± 0.03 %ID/g. For the same compound, the tissue uptake at 1 h (in vivo; Stomach (empty) uptake) was 0.22 ± 0.07 %ID/g, the tissue uptake at 1 h (in vivo; Tumor MeWo uptake) was 1.86 ± 0.31 %ID/g and the tissue to tissue ratio at 1 h (in vivo; total radioactivity, kidney-to-blood ratio) was 126. The tissue to tissue ratio at 1 h (in vivo; total radioactivity, kidney-to-muscle ratio) was 505, the tissue to tissue ratio at 1 h (in vivo; tumor/blood ratio) was 6.7 ± 0.7 and the tissue to tissue ratio at 1 h (in vivo; tumor/heart (myocard) ratio) was 11.7 ± 1.7. For the same compound, the tissue to tissue ratio at 1 h (in vivo; tumor/kidneys ratio) was 0.1, the tissue to tissue ratio at 1 h (in vivo; tumor/liver ratio) was 6.8 ± 1.4 and the tissue to tissue ratio at 1 h (in vivo; tumor/lung ratio) was 2.8 ± 0.7. It also gave a tissue to tissue ratio at 1 h (in vivo; tumor/muscle ratio) of 29 ± 6, a tissue to tissue ratio at 1 h (in vivo; tumor/pancreas ratio) of 15.7 ± 3.5 and a tissue to tissue ratio at 1 h (in vivo; tumor/spleen ratio) of 7.9 ± 1.5. For the same compound, the tissue to tissue ratio at 1 h (in vivo; tumor/stomach (empty) ratio) was 8.8 ± 2.2, the “Dose estimate, Adrenals” value [3] was 2.69E−02 mGy/MBq and the “Dose estimate, Brain” value [3] was 5.23E−03 mGy/MBq. The “Dose estimate, Breasts” value [3] was 5.46E−03 mGy/MBq, the “Dose estimate, Gallbladder wall” value [3] was 1.00E−02 mGy/MBq and the “Dose estimate, Heart wall” value [3] was 1.52E−02 mGy/MBq. The “Dose estimate, Kidneys” value [3] was 2.60E−01 mGy/MBq, the “Dose estimate, LLI wall” value [3] was 2.08E−02 mGy/MBq and the “Dose estimate, Liver” value [3] was 2.43E−02 mGy/MBq. The “Dose estimate, Lungs” value [3] was 7.83E−03 mGy/MBq, the “Dose estimate, Muscle” value [3] was 7.23E−03 mGy/MBq and the “Dose estimate, Osteogenic cells” value [3] was 8.89E−03 mGy/MBq. For the same compound, the “Dose estimate, Ovaries” value [3] was 1.13E−02 mGy/MBq, the “Dose estimate, Pancreas” value [3] was 2.01E−02 mGy/MBq and the “Dose estimate, Red marrow” value [3] was 6.48E−03 mGy/MBq. For the same compound, the “Dose estimate, Skin” value [3] was 5.60E−03 mGy/MBq, the “Dose estimate, Small intestine” value [3] was 3.52E−02 mGy/MBq and the “Dose estimate, Spleen” value [3] was 4.42E−02 mGy/MBq. The “Dose estimate, Stomach wall” value [3] was 1.95E−02 mGy/MBq, the “Dose estimate, Testes” value [3] was 8.14E−03 mGy/MBq and the “Dose estimate, Thymus” value [3] was 6.17E−03 mGy/MBq. For the same compound, the “Dose estimate, Thyroid” value [3] was 5.72E−03 mGy/MBq, the “Dose estimate, Total body” value [3] was 9.41E−03 mGy/MBq and the “Dose estimate, ULI wall” value [3] was 1.57E−02 mGy/MBq. The “Dose estimate, Urinary bladder wall” value [3] was 3.42E−01 mGy/MBq, the “Dose estimate, Uterus” value [3] was 1.57E−02 mGy/MBq and the “effective dose (ICRP 60)” value [3] was 3.00E−02 mSv/MBq. The half-life (clinical) was 1.8 h, the kidney-to-blood ratio (clinical) was “approx. 15” and the kidney-to-muscle ratio (clinical) was ~30. It also gave an SUV at 1.5 h (clinical; iv, 173 MBq, total radioactivity) of 6.1 SUV, a tissue to tissue ratio at 1.5 h (clinical; iv, 173 MBq, total radioactivity, kidney-to-blood ratio) of 15 and a tissue to tissue ratio at 1.5 h (clinical; iv, 173 MBq, total radioactivity, kidney-to-blood ratio, times lower in human than in mice) of 8. It also gave a tissue to tissue ratio at 1.5 h (clinical; iv, 173 MBq, total radioactivity, kidney-to-muscle ratio) of 30, a tissue to tissue ratio at 1.5 h (clinical; iv, 173 MBq, total radioactivity, kidney-to-muscle ratio, times lower in human than in mice) of 16 and an IC50 (αvβ8-integrin; [4]) of 5.7 nM.
